Data published in PMC10540216, “Activity Guided Azide-methyllysine Photo-trapping for Substrate Profiling of Lysine Demethylases” (Journal of the American Chemical Society, 2023).

B1: PLOD2_HUMAN (protein, UniProt O00469 26-737, looked up)
Procollagen-lysine,2-oxoglutar …: ADSEKPSSIPTDKLLVITVATKESDGFHRFMQSAKYFNYTVKVLGQGEEWRGGDGINSIGGGQKVRLMKEVMEHYADQDDLVVMFTECFDVIFAGGPEEVLKKFQKANHKVVFAADGILWPDKRLADKYPVVHIGKRYLNSGGFIGYAPYVNRIVQQWNLQDNDDDQLFYTKVYIDPLKREAINITLDHKCKIFQTLNGAVDEVVLKFENGKARAKNTFYETLPVAINGNGPTKILLNYFGNYVPNSWTQDNGCTLCEFDTVDLSAVDVHPNVSIGVFIEQPTPFLPRFLDILLTLDYPKEALKLFIHNKEVYHEKDIKVFFDKAKHEIKTIKIVGPEENLSQAEARNMGMDFCRQDEKCDYYFSVDADVVLTNPRTLKILIEQNRKIIAPLVTRHGKLWSNFWGALSPDGYYARSEDYVDIVQGNRVGVWNVPYMANVYLIKGKTLRSEMNERNYFVRDKLDPDMALCRNAREMGVFMYISNRHEFGRLLSTANYNTSHYNNDLWQIFENPVDWKEKYINRDYSKIFTENIVEQPCPDVFWFPIFSEKACDELVEEMEHYGKWSGGKHHDSRISGGYENVPTDDIHMKQVDLENVWLHFIREFIAPVTLKVFAGYYTKGFALLNFVVKYSPERQRSLRPHHDASTFTINIALNNVGEDFQGGGCKFLRYNCSIESPRKGWSFMHPGRLTHLHEGLPVKNGTRYIAVSFIDP
B2: LMNB2_HUMAN (protein, UniProt Q03252 1-617, looked up)
Lamin-B2: MSPPSPGRRREQRRPRAAATMATPLPGRAGGPATPLSPTRLSRLQEKEELRELNDRLAHYIDRVRALELENDRLLLKISEKEEVTTREVSGIKALYESELADARRVLDETARERARLQIEIGKLRAELDEVNKSAKKREGELTVAQGRVKDLESLFHRSEVELAAALSDKRGLESDVAELRAQLAKAEDGHAVAKKQLEKETLMRVDLENRCQSLQEELDFRKSVFEEEVRETRRRHERRLVEVDSSRQQEYDFKMAQALEELRSQHDEQVRLYKLELEQTYQAKLDSAKLSSDQNDKAASAAREELKEARMRLESLSYQLSGLQKQASAAEDRIRELEEAMAGERDKFRKMLDAKEQEMTEMRDVMQQQLAEYQELLDVKLALDMEINAYRKLLEGEEERLKLSPSPSSRVTVSRATSSSSGSLSATGRLGRSKRKRLEVEEPLGSGPSVLGTGTGGSGGFHLAQQASASGSVSIEEIDLEGKFVQLKNNSDKDQSLGNWRIKRQVLEGEEIAYKFTPKYILRAGQMVTVWAAGAGVAHSPPSTLVWKGQSSWGTGESFRTVLVNADGEEVAMRTVKKSSVMRENENGEEEEEEAEFGEEDLFHQQGDPRTTSRGC
B3: SATB2_HUMAN (protein, UniProt Q9UPW6 1-733, looked up)
DNA-binding protein SATB2: MERRSESPCLRDSPDRRSGSPDVKGPPPVKVARLEQNGSPMGARGRPNGAVAKAVGGLMIPVFCVVEQLDGSLEYDNREEHAEFVLVRKDVLFSQLVETALLALGYSHSSAAQAQGIIKLGRWNPLPLSYVTDAPDATVADMLQDVYHVVTLKIQLQSCSKLEDLPAEQWNHATVRNALKELLKEMNQSTLAKECPLSQSMISSIVNSTYYANVSATKCQEFGRWYKKYKKIKVERVERENLSDYCVLGQRPMHLPNMNQLASLGKTNEQSPHSQIHHSTPIRNQVPALQPIMSPGLLSPQLSPQLVRQQIAMAHLINQQIAVSRLLAHQHPQAINQQFLNHPPIPRAVKPEPTNSSVEVSPDIYQQVRDELKRASVSQAVFARVAFNRTQGLLSEILRKEEDPRTASQSLLVNLRAMQNFLNLPEVERDRIYQDERERSMNPNVSMVSSASSSPSSSRTPQAKTSTPTTDLPIKVDGANINITAAIYDEIQQEMKRAKVSQALFAKVAANKSQGWLCELLRWKENPSPENRTLWENLCTIRRFLNLPQHERDVIYEEESRHHHSERMQHVVQLPPEPVQVLHRQQSQPAKESSPPREEAPPPPPPTEDSCAKKPRSRTKISLEALGILQSFIHDVGLYPDQEAIHTLSAQLDLPKHTIIKFFQNQRYHVKHHGKLKEHLGSAVDVAEYKDEELLTESEENDSEEGSEEMYKVEAEEENADKSKAAPAEIDQR
B4: P66A_HUMAN (protein, UniProt Q86YP4 1-633, looked up)
Transcriptional repressor …: MTEEACRTRSQKRALERDPTEDDVESKKIKMERGLLASDLNTDGDMRVTPEPGAGPTQGLLRATEATAMAMGRGEGLVGDGPVDMRTSHSDMKSERRPPSPDVIVLSDNEQPSSPRVNGLTTVALKETSTEALMKSSPEERERMIKQLKEELRLEEAKLVLLKKLRQSQIQKEATAQKPTGSVGSTVTTPPPLVRGTQNIPAGKPSLQTSSARMPGSVIPPPLVRGGQQASSKLGPQASSQVVMPPLVRGAQQIHSIRQHSSTGPPPLLLAPRASVPSVQIQGQRIIQQGLIRVANVPNTSLLVNIPQPTPASLKGTTATSAQANSTPTSVASVVTSAESPASRQAAAKLALRKQLEKTLLEIPPPKPPAPEMNFLPSAANNEFIYLVGLEEVVQNLLETQGRMSAATVLSREPYMCAQCKTDFTCRWREEKSGAIMCENCMTTNQKKALKVEHTSRLKAAFVKALQQEQEIEQRLLQQGTAPAQAKAEPTAAPHPVLKQVIKPRRKLAFRSGEARDWSNGAVLQASSQLSRGSATTPRGVLHTFSPSPKLQNSASATALVSRTGRHSERTVSAGKGSATSNWKKTPLSTGGTLAFVSPSLAVHKSSSAVDRQREYLLDMIPPRSIPQSATWK
B5: NU107_HUMAN (protein, UniProt P57740 1-925, looked up)
Nuclear pore complex protein …: MDRSGFGEISSPVIREAEVTRTARKQSAQKRVLLQASQDENFGNTTPRNQVIPRTPSSFRQPFTPTSRSLLRQPDISCILGTGGKSPRLTQSSGFFGNLSMVTNLDDSNWAAAFSSQRSGLFTNTEPHSITEDVTISAVMLREDDPGEAASMSMFSDFLQSFLKHSSSTVFDLVEEYENICGSQVNILSKIVSRATPGLQKFSKTASMLWLLQQEMVTWRLLASLYRDRIQSALEEESVFAVTAVNASEKTVVEALFQRDSLVRQSQLVVDWLESIAKDEIGEFSDNIEFYAKSVYWENTLHTLKQRQLTSYVGSVRPLVTELDPDAPIRQKMPLDDLDREDEVRLLKYLFTLIRAGMTEEAQRLCKRCGQAWRAATLEGWKLYHDPNVNGGTELEPVEGNPYRRIWKISCWRMAEDELFNRYERAIYAALSGNLKQLLPVCDTWEDTVWAYFRVMVDSLVEQEIQTSVATLDETEELPREYLGANWTLEKVFEELQATDKKRVLEENQEHYHIVQKFLILGDIDGLMDEFSKWLSKSRNNLPGHLLRFMTHLILFFRTLGLQTKEEVSIEVLKTYIQLLIREKHTNLIAFYTCHLPQDLAVAQYALFLESVTEFEQRHHCLELAKEADLDVATITKTVVENIRKKDNGEFSHHDLAPALDTGTTEEDRLKIDVIDWLVFDPAQRAEALKQGNAIMRKFLASKKHEAAKEVFVKIPQDSIAEIYNQCEEQGMESPLPAEDDNAIREHLCIRAYLEAHETFNEWFKHMNSVPQKPALIPQPTFTEKVAHEHKEKKYEMDFGIWKGHLDALTADVKEKMYNVLLFVDGGWMVDVREDAKEDHERTHQMVLLRKLCLPMLCFLLHTILHSTGQYQECLQLADMVSSERHKLYLVFSKEELRKLLQKLRESSLMLLDQGLDPLGYEIQL
B6: SYG_HUMAN (protein, UniProt P41250 37-739, looked up)
Glycine--tRNA ligase: SAASCPPISLPAAASRSSMDGAGAEEVLAPLRLAVRQQGDLVRKLKEDKAPQVDVDKAVAELKARKRVLEAKELALQPKDDIVDRAKMEDTLKRRFFYDQAFAIYGGVSGLYDFGPVGCALKNNIIQTWRQHFIQEEQILEIDCTMLTPEPVLKTSGHVDKFADFMVKDVKNGECFRADHLLKAHLQKLMSDKKCSVEKKSEMESVLAQLDNYGQQELADLFVNYNVKSPITGNDLSPPVSFNLMFKTFIGPGGNMPGYLRPETAQGIFLNFKRLLEFNQGKLPFAAAQIGNSFRNEISPRSGLIRVREFTMAEIEHFVDPSEKDHPKFQNVADLHLYLYSAKAQVSGQSARKMRLGDAVEQGVINNTVLGYFIGRIYLYLTKVGISPDKLRFRQHMENEMAHYACDCWDAESKTSYGWIEIVGCADRSCYDLSCHARATKVPLVAEKPLKEPKTVNVVQFEPSKGAIGKAYKKDAKLVMEYLAICDECYITEMEMLLNEKGEFTIETEGKTFQLTKDMINVKRFQKTLYVEEVVPNVIEPSFGLGRIMYTVFEHTFHVREGDEQRTFFSFPAVVAPFKCSVLPLSQNQEFMPFVKELSEALTRHGVSHKVDDSSGSIGRRYARTDEIGVAFGVTIDFDTVNKTPHTATLRDRDSMRQIRAEISELPSIVQDLANGNITWADVEARYPLFEGQETGKKETIEE
B7: ODP2_HUMAN (protein, UniProt P10515 87-647, looked up)
Dihydrolipoyllysine-residue …: SLPPHQKVPLPSLSPTMQAGTIARWEKKEGDKINEGDLIAEVETDKATVGFESLEECYMAKILVAEGTRDVPIGAIICITVGKPEDIEAFKNYTLDSSAAPTPQAAPAPTPAATASPPTPSAQAPGSSYPPHMQVLLPALSPTMTMGTVQRWEKKVGEKLSEGDLLAEIETDKATIGFEVQEEGYLAKILVPEGTRDVPLGTPLCIIVEKEADISAFADYRPTEVTDLKPQVPPPTPPPVAAVPPTPQPLAPTPSAPCPATPAGPKGRVFVSPLAKKLAVEKGIDLTQVKGTGPDGRITKKDIDSFVPSKVAPAPAAVVPPTGPGMAPVPTGVFTDIPISNIRRVIAQRLMQSKQTIPHYYLSIDVNMGEVLLVRKELNKILEGRSKISVNDFIIKASALACLKVPEANSSWMDTVIRQNHVVDVSVAVSTPAGLITPIVFNAHIKGVETIANDVVSLATKAREGKLQPHEFQGGTFTISNLGMFGIKNFSAIINPPQACILAIGASEDKLVPADNEKGFDVASMMSVTLSCDHRVVDGAVGAQWLAEFRKYLEKPITMLL
B8: CSTF3_HUMAN (protein, UniProt Q12996 2-717, looked up)
Cleavage stimulation factor …: SGDGATEQAAEYVPEKVKKAEKKLEENPYDLDAWSILIREAQNQPIDKARKTYERLVAQFPSSGRFWKLYIEAEIKAKNYDKVEKLFQRCLMKVLHIDLWKCYLSYVRETKGKLPSYKEKMAQAYDFALDKIGMEIMSYQIWVDYINFLKGVEAVGSYAENQRITAVRRVYQRGCVNPMINIEQLWRDYNKYEEGINIHLAKKMIEDRSRDYMNARRVAKEYETVMKGLDRNAPSVPPQNTPQEAQQVDMWKKYIQWEKSNPLRTEDQTLITKRVMFAYEQCLLVLGHHPDIWYEAAQYLEQSSKLLAEKGDMNNAKLFSDEAANIYERAISTLLKKNMLLYFAYADYEESRMKYEKVHSIYNRLLAIEDIDPTLVYIQYMKFARRAEGIKSGRMIFKKAREDTRTRHHVYVTAALMEYYCSKDKSVAFKIFELGLKKYGDIPEYVLAYIDYLSHLNEDNNTRVLFERVLTSGSLPPEKSGEIWARFLAFESNIGDLASILKVEKRRFTAFKEEYEGKETALLVDRYKFMDLYPCSASELKALGYKDVSRAKLAAIIPDPVVAPSIVPVLKDEVDRKPEYPKPDTQQMIPFQPRHLAPPGLHPVPGGVFPVPPAAVVLMKLLPPPICFQGPFVQVDELMEIFRRCKIPNTVEEAVRIITGGAPELAVEGNGPVESNAVLTKAVKRPNEDSDEDEEKGAVVPPVHDIYRARQQKRIR

System: KDM4A-I71AzF
Experiment: CASI: photo-crosslinking with HEK293T cell extracts, StrepTactin enrichment and LC-MS/MS proteomics;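 also: lysates from HEK293T cells pretreated with a KDM4 inhibitor to raise proteome methylation, affinity-purified after ±UV, gel-resolved, trypsin-digested, with exclusive unique peptides per protein averaged per condition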
Type: binding, human
Conditions: sheet "Final results but with 0.01"

Row | Molecule | Fold change (+UV/-UV)
1 | B1 | 0.75
2 | B2 | 0.5
3 | B3 | 1
4 | B4 | 1.5
5 | B5 | 2
6 | B6 | 1
7 | B7 | 1
8 | B8 | 0
